First the molecules themselves.
B1: ALYREF fragment aa1–155 (ALYREF^1–155) (domain or fragment)
chain: not shown
notes: source: E. coli BL21-RP, purified (gel filtration), as described previously [30]
B2: ORF57^8–120 (domain or fragment)
chain: GISSDDDFDSSDSSSDEEESDTSPQIMKSDVTMASPPSTPEPSPDVSASTSNLKRERQRSPITWEHQSPLSRVYRSPSPMRFGKRPRISSNSTSRSCKTSWADRVREAAAQRR
notes: Herpesvirus saimiri (HVS) ORF57 protein, residues 8-120; Construct of the NMR and fluorescence experiments; It may be the same construct as the hexa-histidine ORF57^8–120; also called ORF57 aa8–120; ORF57(aa8–120); source: E. coli BL21-RP, purified (gel filtration), as described previously [30]

For the test “ORF57^8–120”, the target named is B2. In words: other fluorescence titration; 14merS RNA titrated into 10 µM 1:1 ALYREF^1–155 - ORF57^8–120 mixture in buffer F; three-equation equilibrium model (DynaFit); the constant of ALYREF for the ORF57-RNA complex inferred from the thermodynamic cycle; apparent. Particulars: both partners purified.
The target of test [1] is B1. As to the kind of experiment: other fluorescence titration; blue shift of tryptophan emission (barycentric mean) with rising concentrations of equimolar ALYREF^1–155 and ORF57^8–120; buffer F (20 mM phosphate pH 6.2, 50 mM NaCl, 50 mM L-Arg+L-Glu, 5 mM EDTA, 1 mM TCEP); apparent Kd, quadratic equation or DynaFit. The settings on record: both partners purified.

As to B1, in the test with ORF57^8–120, the “KD of ALYREF for the ORF57-RNA (14merS) complex, inferred from the thermodynamic cycle” value is 520 nM. Turning to B2, in test [1], the Kd is 2560 ± 200 nM.

These data come from PMC3923783, “Competitive and Cooperative Interactions Mediate RNA Transfer from Herpesvirus Saimiri ORF57 to the Mammalian Export Adaptor ALYREF” (PLoS Pathogens, 2014).
